Tests used:
[1] = target: T1, biotinylated human BCMA-Fc, Avitag recombinant protein (ACRO Biosystems, #BC7-H82F0) (human, UniProt Q02223 1-54, biotinylated); assay: BLI (Octet Red96e), biotinylated BCMA-Fc on SA sensor, antibody in solution, 1:1 global fit
T1 construct: extracellular domain; Bought protein; also called human BCMA protein; recombinant human BCMA-ECD-Fc; not shown: Fc of the bought fusion protein; Avitag
T1 sequence (looked up): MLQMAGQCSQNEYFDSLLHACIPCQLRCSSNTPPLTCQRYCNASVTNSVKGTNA

human BCMA = target: T2, human BCMA (human, UniProt Q02223 1-184); assay: flow cytometry, NCI-H929 cells
T2 construct: whole, on cells; the cell line is named under assay; also called TNFRSF17; CD269
T2 sequence (looked up): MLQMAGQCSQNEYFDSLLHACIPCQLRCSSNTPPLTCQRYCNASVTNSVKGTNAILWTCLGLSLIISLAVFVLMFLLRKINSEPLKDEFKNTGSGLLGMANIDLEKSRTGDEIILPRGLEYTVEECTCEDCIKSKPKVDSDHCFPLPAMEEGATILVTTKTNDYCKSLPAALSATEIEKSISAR

[2] = target: T3, human PD-L1 on cells (CHO-K1/hPDL1; MDA-MB-231) (human, UniProt Q9NZQ7 19-290); assay: FACS, CHO-K1/hPDL1 cells (Experiment 2)
T3 construct: whole, on cells
T3 sequence (Q9NZQ7 19-290): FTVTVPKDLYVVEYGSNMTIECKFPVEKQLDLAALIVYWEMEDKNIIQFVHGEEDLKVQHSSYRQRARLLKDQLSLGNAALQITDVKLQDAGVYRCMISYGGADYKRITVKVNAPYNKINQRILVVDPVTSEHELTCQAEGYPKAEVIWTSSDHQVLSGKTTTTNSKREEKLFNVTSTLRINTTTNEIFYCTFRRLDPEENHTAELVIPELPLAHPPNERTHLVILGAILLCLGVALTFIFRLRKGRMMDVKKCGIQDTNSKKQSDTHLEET

[3] = target: T4, human CTLA4 on cells (CHO-K1/hCTLA4; HEK293/hCTLA4; 293F-hCTLA4) (human, UniProt P16410 36-223); assay: FACS, CHO-K1/hCTLA4 cells (Test 2)
T4 construct: whole, on cells
T4 sequence (P16410 36-223): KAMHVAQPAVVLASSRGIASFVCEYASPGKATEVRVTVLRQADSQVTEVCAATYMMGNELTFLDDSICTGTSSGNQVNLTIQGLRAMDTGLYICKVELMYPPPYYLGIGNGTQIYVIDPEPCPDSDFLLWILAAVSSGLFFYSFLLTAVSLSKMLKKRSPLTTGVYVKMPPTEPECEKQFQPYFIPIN

[4] = target: T4, human CTLA4 on cells (CHO-K1/hCTLA4; …); assay: FACS, HEK293/hCTLA4 cells
[5] = target: T3, human PD-L1 on cells (CHO-K1/hPDL1; …); assay: competition FACS: biotinylated PD-1 to CHO-K1/hPDL1 cells (Experiment 2)
[6] = target: T5, human 4-1BB (tumor necrosis factor receptor superfamily member 9) (human, UniProt Q07011 24-255); assay: flow cytometry (FACS) on CHO-K1/hu 4-1BB cells
T5 construct: whole, on cells; also called hu 4-1BB; CD137
T5 sequence (Q07011 24-255): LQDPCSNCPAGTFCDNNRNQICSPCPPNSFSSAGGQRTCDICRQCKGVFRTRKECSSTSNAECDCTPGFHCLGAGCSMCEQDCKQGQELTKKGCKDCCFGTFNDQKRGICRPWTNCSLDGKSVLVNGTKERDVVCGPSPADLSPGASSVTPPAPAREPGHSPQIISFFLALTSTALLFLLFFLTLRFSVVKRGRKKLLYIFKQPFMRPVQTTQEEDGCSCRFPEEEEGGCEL

[7] = target: T6, human PD-L1 (programmed death ligand 1) (human, UniProt Q9NZQ7 19-290); assay: flow cytometry (FACS) on CHO-K1/hPDL1 cells, Experiment 1
T6 construct: whole, on cells; also called hPDL1; CD274
T6 sequence (Q9NZQ7 19-290): as the sequence (Q9NZQ7 19-290) above

[8] = target: T7, human CD3 (TCR/CD3 complex) on human T cells (human, UniProt P07766 23-207); assay: flow cytometry (FACS) on human T cells, Experiment 1
T7 construct: whole, on cells
T7 sequence (P07766 23-207, one chain of several): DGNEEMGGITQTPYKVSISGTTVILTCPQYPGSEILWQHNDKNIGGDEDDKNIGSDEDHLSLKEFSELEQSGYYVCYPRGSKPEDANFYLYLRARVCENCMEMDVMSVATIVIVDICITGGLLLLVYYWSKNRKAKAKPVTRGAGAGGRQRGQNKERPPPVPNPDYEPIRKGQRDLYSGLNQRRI

B1: PR000940, anti-BCMA HCAb antibody, clone 1005P10H8 (antibody, human IgG1, V domains shown)
VH: EVQLLESGGGLVQPGGSLRLSCAASGFTFSSYAMIWVRQAPGKGLEWVSGISESGGSTYYADSVKGRFTISRDNSKNTLYLQMNSLRAEDTAVYFCVKDLDDILTGYYKDYWGQGTLVTVSS
notes: Heavy-chain-only antibody (HCAb), human IgG1 Fc, no light chain
Kd [1]: 0.152 nM | koff [1]: 6.09e-05 s⁻¹ | kon [1]: 401000 M⁻¹ s⁻¹ | EC50 (human BCMA): 1.85 nM | Maximum MFI (human BCMA): 91000

B2: PR000404 (bispecific antibody, human IgG1, kappa)
chain 1: EVQLVESGGGLVQPGGSLRLSCAASGFTFSSYWMSWVRQAPGKGLEWVANIKQEGSEKYYVDSVKGRFTISRDNAKNSLYLQMNSLRAEDTAVYYCARDRAVAGAFDIWGQGTMVTVSSASTKGPSVFPLAPSSKSTSGGTAALGCLVKDYFPEPVTVSWNSGALTSGVHTFPAVLQSSGLYSLSSVVTVPSSSLGTQTYICNVNHKPSNTKVDKKVEPKSC
chain 2: not shown
notes: PD-L1×CTLA4, structure 1
EC50 [2]: 0.78 nM | Maximum MFI [2]: 8100 MFI | EC50 [3]: 26.9 nM | Maximum MFI [3]: 339 MFI | EC50 [4]: 37.2 nM | Maximum MFI [4]: 1620 MFI | IC50 [5]: 0.6 nM | Maximum inhibition rate (%) [5]: 81.1%

B3: PR000701, PD-L1×4-1BB bispecific antibody molecule of FIT-Ig structure (bispecific antibody, human IgG4 S228P, kappa)
chain 1: not shown
chain 2: EVQLVESGGGLVQPGGSLRLSCAASGFTFSSYWMSWVRQAPGKGLEWVANIKQEGSEKYYVDSVKGRFTISRDNAKNSLYLQMNSLRAEDTAVYYCARDRAVAGAFDIWGQGTMVTVSSASTKGPSVFPLAPSSKSTSGGTAALGCLVKDYFPEPVTVSWNSGALTSGVHTFPAVLQSSGLYSLSSVVTVPSSSLGTQTYICNVNHKPSNTKVDKKVEPKSC
chain 3: not shown
notes: FIT-Ig; Fab A of PR000265 (PD-L1), Fab B of PR000197 (4-1BB) close to Fc; no linker; human IgG4
EC50 [6]: 10.2 nM | Maximum MFI [6]: 1340 MFI | EC50 [7]: 1.72 nM | Maximum MFI [7]: 1710 MFI

B4: PR003551, PD-L1×4-1BB bispecific antibody molecule of IgG-VH tetravalent symmetric structure (bispecific antibody)
light: DIQMTQSPSTLSASVGDRVTVTCRASQSIYIWLAWYQQKPGKAPNLLIYKASSLETGVPSRFSGSGSGTEFTLTISSLQPDDFATYYCQQYYGSSRTFGQGTKVEIKRTVAAPSVFIFPPSDEQLKSGTASVVCLLNNFYPREAKVQWKVDNALQSGNSQESVTEQDSKDSTYSLSSTLTLSKADYEKHKVYACEVTHQGLSSPVTKSFNRGEC
heavy: EVQLVESGGGLVQPGGSLRLSCAASGFTFSSYWMSWVRQAPGKGLEWVANIKQEGSEKYYVDSVKGRFTISRDNAKNSLYLQMNSLRAEDTAVYYCARDRAVAGAFDIWGQGTMVTVSSASTKGPSVFPLAPSSKSTSGGTAALGCLVKDYFPEPVTVSWNSGALTSGVHTFPAVLQSSGLYSLSSVVTVPSSSLGTQTYICNVNHKPSNTKVDKKVEPKSCDKTHTCPPCPAPEAAGGPSVFLFPPKPKDTLMISRTPEVTCVVVDVSHEDPEVKFNWYVDGVEVHNAKTKPREEQYNSTYRVVSVLTVLHQDWLNGKEYKCKVSNKALGAPIEKTISKAKGQPREPQVYTLPPSREEMTKNQVSLTCLVKGFYPSDIAVEWESNGQPENNYKTTPPVLDSDGSFFLYSKLTVDKSRWQQGNVFSCSVMHEALHNHYTQKSLSLSPGEPKSSDKTHTPPPPPRTEVQLLESGGGLVQPGGSLRLSCAASGFIFSNFAMTWVRQPPEKGLKWVSSINGSGFNTYYTDSVKGRFTISRDNSRNTLYLQMNRLTAEDTAVYFCAKEGSSETDDHYYNVDVWGQGTTVTVSS
notes: Structure 5; IgG PR000265, VH of PR001836 at C-terminus of heavy chain; linker H1_15-RT; human IgG1 (L234A, L235A, P329G)
EC50 [6]: 3.15 nM | Maximum MFI [6]: 1570 MFI | EC50 [7]: 1.29 nM | Maximum MFI [7]: 2150 MFI

B5: PR001987 (bispecific antibody, human IgG1, lambda, L234A L235A)
light: QAVVTQEPSLTVSPGGTVTLTCRSSTGAVTTSNYANWVQQKPGQAPRGLIGGTNKRAPWTPARFSGSLLGDKAALTLLGAQPEDEAEYFCALWYSNLWVFGGGTKLTVLGQPKAAPSVTLFPPSSEELQANKATLVCLISDFYPGAVTVAWKADSSPVKAGVETTTPSKQSNNKYAASSYLSLTPEQWKSHRSYSCQVTHEGSTVEKTVAPTECS
heavy: EVQLLESGGGLVQPGGSLRLSCAASGFTFNTYAMNWVRQAPGKGLEWVSRIRSKYNNYATYYADSVKDRFTISRDDSKSTLYLQMNSLRAEDTAVYYCVRHGNFGNSYVSWFAYWGQGTLVTVSSASTKGPSVFPLAPSSKSTSGGTAALGCLVKDYFPEPVTVSWNSGALTSGVHTFPAVLQSSGLYSLSSVVTVPSSSLGTQTYICNVNHKPSNTKVDKKVEPKSCDKTHTCPPCPAPEAAGGPSVFLFPPKPKDTLMISRTPEVTCVVVDVSHEDPEVKFNWYVDGVEVHNAKTKPREEQYNSTYRVVSVLTVLHQDWLNGKEYKCKVSNKALGAPIEKTISKAKGQPREPQVYTLPPCREEMTKNQVSLWCLVKGFYPSDIAVEWESNGQPENNYKTTPPVLDSDGSFFLYSKLTVDKSRWQQGNVFSCSVMHEALHNHYTQKSLSLSPGK
chain: EVQLLESGGGLVQPGGSLRLSCAASGFTFSSYAMIWVRQAPGKGLEWVSGISESGGSTYYADSVKGRFTISRDNSKNTLYLQMNSLRAEDTAVYFCVKDLDDILTGYYKDYWGQGTLVTVSSASEPKSSDKTHTCPPCPAPEAAGGPSVFLFPPKPKDTLMISRTPEVTCVVVDVSHEDPEVKFNWYVDGVEVHNAKTKPREEQYNSTYRVVSVLTVLHQDWLNGKEYKCKVSNKALGAPIEKTISKAKGQPREPQVCTLPPSREEMTKNQVSLSCAVKGFYPSDIAVEWESNGQPENNYKTTPPVLDSDGSFFLVSKLTVDKSRWQQGNVFSCSVMHEALHNHYTQKSLSLSPGK
notes: Structure 11 (Fab-Fc-VH): CD3 Fab from PR000511, BCMA VH from PR000940; human IgG1 knob/hole, AAG; also called BCMA×CD3 bispecific antibody molecule of Fab-Fc-VH asymmetric structure
Maximum MFI [8]: 5160 MFI

B6: PR001988 (bispecific antibody, human IgG1, lambda, L234A L235A)
light: QAVVTQEPSLTVSPGGTVTLTCRSSTGAVTTSNYANWVQQKPGQAPRGLIGGTNKRAPWTPARFSGSLLGDKAALTLLGAQPEDEAEYFCALWYSNLWVFGGGTKLTVLGQPKAAPSVTLFPPSSEELQANKATLVCLISDFYPGAVTVAWKADSSPVKAGVETTTPSKQSNNKYAASSYLSLTPEQWKSHRSYSCQVTHEGSTVEKTVAPTECS
heavy: EVQLLESGGGLVQPGGSLRLSCAASGFTFNTYAMNWVRQAPGKGLEWVSRIRSKYNNYATYYADSVKDRFTISRDDSKSTLYLQMNSLRAEDTAVYYCVRHGNFGNSYVSWFAYWGQGTLVTVSSASTKGPSVFPLAPSSKSTSGGTAALGCLVKDYFPEPVTVSWNSGALTSGVHTFPAVLQSSGLYSLSSVVTVPSSSLGTQTYICNVNHKPSNTKVDKKVEPKSCDKTHTCPPCPAPEAAGGPSVFLFPPKPKDTLMISRTPEVTCVVVDVSHEDPEVKFNWYVDGVEVHNAKTKPREEQYNSTYRVVSVLTVLHQDWLNGKEYKCKVSNKALGAPIEKTISKAKGQPREPQVYTLPPCREEMTKNQVSLWCLVKGFYPSDIAVEWESNGQPENNYKTTPPVLDSDGSFFLYSKLTVDKSRWQQGNVFSCSVMHEALHNHYTQKSLSLSPGK
chain: EVQLVETGGGLIQPGGSLRLSCAASGFPVSSNYMSWVRQAPGKGLEWVSVIFSGGRTYYADSVKGRFTISRDNSKNTLYLQMNSLRAEDTAVYYCARRNWIDGRDAFDIWGQGTMVTVSSASEPKSSDKTHTCPPCPAPEAAGGPSVFLFPPKPKDTLMISRTPEVTCVVVDVSHEDPEVKFNWYVDGVEVHNAKTKPREEQYNSTYRVVSVLTVLHQDWLNGKEYKCKVSNKALGAPIEKTISKAKGQPREPQVCTLPPSREEMTKNQVSLSCAVKGFYPSDIAVEWESNGQPENNYKTTPPVLDSDGSFFLVSKLTVDKSRWQQGNVFSCSVMHEALHNHYTQKSLSLSPGK
notes: Structure 11 (Fab-Fc-VH): CD3 Fab from PR000511, BCMA VH from PR000943; human IgG1 knob/hole, AAG
Maximum MFI [8]: 5800 MFI

B7: PR001989 (bispecific antibody, human IgG1, lambda, L234A L235A)
light: QAVVTQEPSLTVSPGGTVTLTCRSSTGAVTTSNYANWVQQKPGQAPRGLIGGTNKRAPWTPARFSGSLLGDKAALTLLGAQPEDEAEYFCALWYSNLWVFGGGTKLTVLGQPKAAPSVTLFPPSSEELQANKATLVCLISDFYPGAVTVAWKADSSPVKAGVETTTPSKQSNNKYAASSYLSLTPEQWKSHRSYSCQVTHEGSTVEKTVAPTECS
heavy: EVQLLESGGGLVQPGGSLRLSCAASGFTFNTYAMNWVRQAPGKGLEWVSRIRSKYNNYATYYADSVKDRFTISRDDSKSTLYLQMNSLRAEDTAVYYCVRHGNFGNSYVSWFAYWGQGTLVTVSSASTKGPSVFPLAPSSKSTSGGTAALGCLVKDYFPEPVTVSWNSGALTSGVHTFPAVLQSSGLYSLSSVVTVPSSSLGTQTYICNVNHKPSNTKVDKKVEPKSCDKTHTCPPCPAPEAAGGPSVFLFPPKPKDTLMISRTPEVTCVVVDVSHEDPEVKFNWYVDGVEVHNAKTKPREEQYNSTYRVVSVLTVLHQDWLNGKEYKCKVSNKALGAPIEKTISKAKGQPREPQVYTLPPCREEMTKNQVSLWCLVKGFYPSDIAVEWESNGQPENNYKTTPPVLDSDGSFFLYSKLTVDKSRWQQGNVFSCSVMHEALHNHYTQKSLSLSPGK
chain: EVQLVETGGGLIQPGGSLRLSCAASGFTVSSNYMTWVRQAPGKGLEWVSVIFSGGSTYYADSVKGRFTISRDNSKNTLYLQMNSLRAEDTAVYYCARRIAVAGHDVFDIWGQGTMVTVSSASEPKSSDKTHTCPPCPAPEAAGGPSVFLFPPKPKDTLMISRTPEVTCVVVDVSHEDPEVKFNWYVDGVEVHNAKTKPREEQYNSTYRVVSVLTVLHQDWLNGKEYKCKVSNKALGAPIEKTISKAKGQPREPQVCTLPPSREEMTKNQVSLSCAVKGFYPSDIAVEWESNGQPENNYKTTPPVLDSDGSFFLVSKLTVDKSRWQQGNVFSCSVMHEALHNHYTQKSLSLSPGK
notes: Structure 11 (Fab-Fc-VH): CD3 Fab from PR000511, BCMA VH from PR001035; human IgG1 knob/hole, AAG
Maximum MFI [8]: 6680 MFI

From patent US20230322953A1 (HARBOUR BIOMED SHANGHAI, published 2023)
